Earlier results on 1 substance are cited in publication PMC6691393.

By Kd is commonly meant the equilibrium constant for the complex coming apart.

This series deals with Survivin BIR (Homo sapiens) (UniProt O15392).
UniProt O15392, sequence (O15392 15-91): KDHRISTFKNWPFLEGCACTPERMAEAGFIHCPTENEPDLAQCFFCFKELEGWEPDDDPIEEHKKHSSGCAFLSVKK

Take “SMAC/Diablo N-terminal peptide (from UniProt Q9NR28)”: the Kd is 121 µM.
